The nature of series [1]: melting temperature (DSF); higher = more thermostable. The method in brief: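 Candidate enzymes were expressed in E. coli C41(DE3), purified on nickel beads and released by SUMO protease cleavage. For differential scanning fluorimetry, 45 μL enzyme (0 to 0.3 mg/mL) was mixed with 5 μL 5X Sypro Orange in sealed PCR plates on a Bio-Rad CFX96 instrument. Fluorescence was read from 25 °C in steps of 0.3 °C per cycle (ramp 0.3 °C/s) for 250 cycles. The read-out is melting temperature.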

Series [2] in a line: purified protein yield per well (BCA); higher = higher soluble expression. The method in brief:
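Candidate enzymes were produced in E. coli C41(DE3) grown in 2 mL autoinduction cultures containing 100 µg/mL kanamycin, first at 37 °C for 2 h and then at 18 °C for 40 h. After cell lysis, protein was captured on Ni-charged magnetic beads and freed by SUMO protease cleavage on an OT-2 robot. Purified protein yield per well was read with the Pierce Rapid Gold BCA kit. Values under 25 ug (0.1 mg/mL) fall below the detection threshold.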

Series [3] is described as follows: PET hydrolysis, aromatic products released after 48 h (umol product/mg enzyme); higher = more PET depolymerization activity. The method in brief: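 The measure of PET hydrolysis activity is aromatic product released into the supernatant, given per mg enzyme. Nickel-purified, SUMO-cleaved enzyme without tag was added at 5 μg (50 μL) to 3.5 mg amorphous PET film or crystalline PET powder in 450 μL of citrate, phosphate or glycine buffer spanning pH 4.5 to 8.5. After 48 h at 40 or 60 °C in sealed plates without shaking, absorbance at 260 and 280 nm was taken against buffer blanks.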

The mark [4] stands for this setting: substrate: cryPow, 40 °C, pH 4.5.
The mark [5] stands for this setting: substrate: cryPow, 40 °C, pH 5.5.
Where [6] appears, read: substrate: cryPow, 40 °C, pH 6.5.
Setting [7] is: substrate: cryPow, 40 °C, pH 7.5.
Where [8] appears, read: substrate: cryPow, 60 °C, pH 4.5.
The mark [9] stands for this setting: substrate: cryPow, 60 °C, pH 5.5.
The mark [10] stands for this setting: substrate: cryPow, 60 °C, pH 6.5.
Where [11] appears, read: substrate: cryPow, 60 °C, pH 7.5.
Where [12] appears, read: substrate: cryPow, 40 °C, pH 8.5.
Where [13] appears, read: substrate: cryPow, 60 °C, pH 8.5.
The mark [14] stands for this setting: substrate: aFilm, 40 °C, pH 5.5.
Setting [15] is: substrate: aFilm, 40 °C, pH 6.5.
Where [16] appears, read: substrate: aFilm, 40 °C, pH 7.5.
Setting [17] is: substrate: aFilm, 60 °C, pH 5.5.
[18] abbreviates: substrate: aFilm, 60 °C, pH 6.5.
[19] abbreviates: substrate: aFilm, 60 °C, pH 7.5.

± gives the standard deviation of the averaged measurements.

As for “ADNPYQRGPDPTLASVSATRGTFATAQVSVPAGNGFASGVIYYPTDTSQGTFGGVAIVPGYSALFANEEAWMGPWLASFGFVVIGIETNSRTDSADARGTQLLAALDYLTQRSAVRDRVDPNRLSVIGHSAGGAGVLSALLRRPTLKAAVGLAPGSPVGDYSLYNDRVPTMFISGERDTTVTRSYLNGLYTTIPASTPSAWVEITGVDHLFATRANTTEMRVLIPWLKIFLDNDTRYTQFLCPQLADPGNVSMYRNKCPYVPPGGSSPSASPSTSPSASPSTSPSASPSVSPSPSPSPSPSASPSTSRACTASYRTVNSWSGGFQGEVTVTAGTSAINGWTVGWTLSGGQTINQLWNGTLSANGSAVRVTNVSYNGSIPASGSSTFGFLGTGTPSNPTLTCTSP [ESM040]”, in series [1], the melting temperature was determined as 59.8 C. Also, the “purified protein yield per well” value in series [2] came to 526 µg. Also, the PET hydrolysis in series [3] (setting [4]), in series [3] (setting [5]), in series [3] (setting [6]), in series [3] (setting [7]), in series [3] (setting [8]) and in series [3] (setting [9]) was less than 3 in each case. The PET hydrolysis in series [3] (setting [10]) and in series [3] (setting [11]) was less than 3 throughout.

In series [1], “ADNPYQRGPDPTNASIEAATGPFAVGTQPIVGASGFGGGQIYYPTDTSQTYGAVVIVPGFISVWAQLNWLGPRLASQGFVVIGIETSVITDLPDPRGDQALAALDWATTRSPVASRIDRTRLAAAGWSMGGGGLRRAALQRPSLKAIVGMAPWNGERNWSAVTVPTLFFGGSSDAVASPNDHAKPFYNSITRAEKDYIELRNADHFFPTSANTTMAKYFISWLKRWVDNDTRYTQFLCPGPSTGLFAPVSASMNTCPF [DP077]” showed a melting temperature of 60.1 C. The “purified protein yield per well” value in series [2] was 87 µg. Also, the PET hydrolysis in series [3] (setting [5]) was found to be 24; in series [3] (setting [6]), 73; in series [3] (setting [7]), 90; in series [3] (setting [12]), 87; in series [3] (setting [9]), 6; in series [3] (setting [10]) it was 23. The PET hydrolysis in series [3] (setting [11]) worked out at 32; in series [3] (setting [13]), 26.

“ADNPYQRGPDPTPAGVAASRGPFATAQTTVAPGNGFNGGTIYYPTDTSAGTWGAVAIVPGYTALFADEEAWMGPWLSSFGFVVIGIETNSRTDFDVARGTQLLAALDYLTQQSPVRDRVDTSRLSVIGHSMGGGGVVYATEHRPSLKAAVALAPFSPSQDMSTDRVPTMVMAGQNDTVVTPSYLDGLYATMPAATQSDFVQIAGADHVYYTHPQSTEMRILIPWLKIFVDNDTRYTQFLCPSLSDSSGISIYRSKCPYVPPGTSTTGGTTSGTTSGGTTTGGTTSGGTTTGGTTSGGTTSGGTSGSACTASYATVNTWSGGFQGEVTVTAGGKPVNGWTVRWTLAGGQGISQVWNGTVSTSGSDVSVRNVSYNGSLQPSTSTTFGFLGTGTPSDVSLSCTSP [ESM043]” yielded a melting temperature in series [1] of 37 C. For the same sequence, the “purified protein yield per well” value in series [2] was 31.4 µg. In addition, the PET hydrolysis in series [3] (setting [4]) is 4; in series [3] (setting [5]), 11; in series [3] (setting [6]) it was 5; in series [3] (setting [7]), less than 3.

“ADNPYQRGPDPTPALVASVNGPFATASVSVPAGYGFGGGMIYYPTDTSQGTFGGIAISPGYTALFSAELAWMGPWLASHGFVVIGIETNNRNDFDEARGTQLLAALDYLTQQSPVRNRVDPNRLAVAGHSMGGGGALNAAIRRPSLKAAVGLAPFSPSSNLANDRVPTMVFSGQQDTVVTPSYVTGLYNSLPSTTQSAYLEIAGGDHGFPVGRPNQVMIRTMLPFVKIFVDYDTRYSPFLCPLSDTSGVVTYRSTCPLTPPGLPTTPPTTPPTTVPTSPPTGGPTTPPTTPSQPGGACTATYRTVNSWPGGFQGEVTVTAGNSAINGWTVRWTLDSGQAITQVWNGEVSTSGSTVSVRNAPYNGSLPPSGSTTFGFLSSGSPSSPSLTCTSP [DP059]”: the melting temperature in series [1] turned out to be 74.2 C. For the same sequence, in series [2], the “purified protein yield per well” value was found to be 255 µg. In addition, the PET hydrolysis in series [3] (setting [14]) was less than 3; in series [3] (setting [15]), less than 3; in series [3] (setting [16]), less than 3; in series [3] (substrate: aFilm, 40 °C, pH 8.5), less than 3; in series [3] (setting [17]), 2 ± 2.8; in series [3] (setting [18]), less than 3. For the same sequence, the PET hydrolysis in series [3] (setting [19]) was less than 3; in series [3] (substrate: aFilm, 60 °C, pH 8.5), less than 3; in series [3] (setting [5]) it was 5.5 ± 0.71; in series [3] (setting [6]) it was 21.5 ± 3.5; in series [3] (setting [7]), 35 ± 2.8; in series [3] (setting [12]), 32.5 ± 3.5. For the same sequence, the PET hydrolysis in series [3] (setting [9]) is 32.5 ± 2.1; in series [3] (setting [10]) it was 47 ± 8.5; in series [3] (setting [11]), 19.5 ± 3.5; in series [3] (setting [13]) it was 34 ± 1.4.

As for “ADNPYQRGPDPTPASIAADHGPFATAQTTIPKGNGLGGGIVYYPTDTSQGTFGAIAIAPGYGTEWRWYGWLGPRLASFGFVVVGIETNSLSDYADARADQLLAALDWLVTSSPVRDRVDRTRLAVGGHSMGGGGALVAATRRPSLRSAVGMAPYVPDGILRGTSVPTILFGGQADTTVTPAYLASAYATIPATVPRAYPEIAGEGHGFAAGGGGGNSGAFARVMMVWLKVFVDADTRYPPFLCPTLSNTSGISKYQASCPLGPGGTIPPPDTSRLANANAGRCLDASGAGTANGTKVILWTCNHGANQQWNRT [ESM139]”, the melting temperature in series [1] came to 65.5 C. In addition, the “purified protein yield per well” value in series [2] was 305 µg. Further, the PET hydrolysis is less than 3 in series [3] (substrate: aFilm, 40 °C, pH 4.5); less than 3 in series [3] (setting [14]); less than 3 in series [3] (setting [15]); less than 3 in series [3] (setting [16]); less than 3 in series [3] (substrate: aFilm, 60 °C, pH 4.5); less than 3 in series [3] (setting [17]). Also, the PET hydrolysis in series [3] (setting [18]) was less than 3; in series [3] (setting [19]), less than 3; in series [3] (setting [4]) it was less than 3; in series [3] (setting [5]) it was less than 3; in series [3] (setting [6]), 1.5 ± 2.1; in series [3] (setting [7]), 3.5 ± 0.71. The PET hydrolysis in series [3] (setting [8]), in series [3] (setting [9]), in series [3] (setting [10]) and in series [3] (setting [11]) was less than 3 each time.

These data come from the supplement of paper PMC12455559.
